In patent publication US20230257454A1 (STAIDSON BEIJING BIOPHARMACEUTICALS, published 2023):
Changes are numbered by the printed parent chain. Where two headings read alike, the source gives them in different places.

How the values were obtained:
[1] = target: T1, human C5a (source not stated) (human, UniProt P01031 678-751); test: cell-based or functional assay
T1 sequence: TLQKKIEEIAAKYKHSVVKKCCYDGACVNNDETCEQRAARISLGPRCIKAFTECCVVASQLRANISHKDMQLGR

[2] = target: T1, human C5a (source not stated); test: cell-based or functional assay; remark: listed apart in the source
[3] = target: T1, human C5a (source not stated); test: cell-based or functional assay; remark: listed apart in the source
[4] = target: T2, human recombinant C5a (human, UniProt P01031 678-751); test: ELISA, plate coated with human rC5a, scFv titrated, OD410
T2 construct: Full-length human C5a; also called rC5a; human C5a
T2 sequence: T1 sequence
Description: Monoclonal scFv antibodies were selected and subjected to ligand binding assays. The binding assay was designed to identify scFv antibodies that bound human recombinant C5a or endogenous C5a. Briefly, a 96-well plate was coated with human rC5a or eC5a in PBS at 0.1 µg/well and left overnight at 4° C. Before loading the scFv antibodies, the plates were washed with TBST, blocked for 1-2 hours at 37° C. using 5% milk and washed again with TBST. Each scFv sample was first diluted to 10 µg/mL, and 150 µL was added to the first row of wells. The 10 µg/mL scFv samples were then serially diluted at a 1:3 ratio and added to the remaining wells. After incubating for 1 hour at 37° C., followed by washing with TBST 6 times, 100µl of the primary antibody and secondary antibody mixture (mouse anti-flag (1:2500) and anti-mouse FC-AP (1:2000)) was added to each well. After incubation for 1 hour under 37° C., the plate was washed 3 times using TBST. pNPP was then added at 50 µL/well and incubated for 10-20 minutes at 37° C. 50 µL 3 M NaOH was used to stop the reaction. The ELISA results (OD410) were then analyzed and the binding curves were generated by PRISM.

[5] = target: T3, C5a-T33A; test: ELISA on the coated C5a protein, antibody titrated, OD410
T3 single chain: T1 sequence with T33A

[6] = target: T4, C5a-R40A; test: as above
T4 single chain: T1 sequence with R40A

[7] = target: T5, C5a-E32A; test: as above
T5 single chain: T1 sequence with E32A

[8] = target: T6, C5a-Q36A; test: as above
T6 single chain: T1 sequence with Q36A

[9] = target: T7, native full-length human complement component C5 (human, UniProt P01031 19-673; P01031 678-1676); test: ELISA, plate coated with human native C5, full-length antibody titrated, OD410
T7 construct: mature; The native protein has two disulfide-linked chains (alpha and beta) made from one precursor; also called human native C5

[10] = target: T7, native full-length human complement …; test: SPR (Biacore T200), antibody on CM5 chip, antigen 0-10 nM; SPR (Biacore T200), Cab05-IgG4 on CM5 chip, C5 at 0-10 nM: no signal, given only as a lower bound on Kd
Description: (§1) The affinities for eC5a and c5 at various concentrations were measured. […] The concentrations of 0.625 and 0 nM were repeated once. Using the SPR technology, the association and dissociation rates were measured, and binding affinity was determined.

[11] = target: T8, human endogenous C5a (human, UniProt P01031 678-751, limits assumed); test: SPR (Biacore T200), antibody on CM5 chip, antigen 0-10 nM
T8 construct: Endogenous human C5a; also called eC5a
T8 sequence: T1 sequence
Description: as §1

[12] = target: T3, C5a-T33A; test: ELISA on the coated C5a protein, antibody titrated, OD410
[13] = target: T4, C5a-R40A; test: as above
[14] = target: T6, C5a-Q36A; test: as above
[15] = target: T7, native full-length human complement …; test: SPR (Biacore T200), antibody on CM5 chip, antigen 0-10 nM
Description: as §1

T7 sequence (P01031 19-673 limits assumed, one chain of several): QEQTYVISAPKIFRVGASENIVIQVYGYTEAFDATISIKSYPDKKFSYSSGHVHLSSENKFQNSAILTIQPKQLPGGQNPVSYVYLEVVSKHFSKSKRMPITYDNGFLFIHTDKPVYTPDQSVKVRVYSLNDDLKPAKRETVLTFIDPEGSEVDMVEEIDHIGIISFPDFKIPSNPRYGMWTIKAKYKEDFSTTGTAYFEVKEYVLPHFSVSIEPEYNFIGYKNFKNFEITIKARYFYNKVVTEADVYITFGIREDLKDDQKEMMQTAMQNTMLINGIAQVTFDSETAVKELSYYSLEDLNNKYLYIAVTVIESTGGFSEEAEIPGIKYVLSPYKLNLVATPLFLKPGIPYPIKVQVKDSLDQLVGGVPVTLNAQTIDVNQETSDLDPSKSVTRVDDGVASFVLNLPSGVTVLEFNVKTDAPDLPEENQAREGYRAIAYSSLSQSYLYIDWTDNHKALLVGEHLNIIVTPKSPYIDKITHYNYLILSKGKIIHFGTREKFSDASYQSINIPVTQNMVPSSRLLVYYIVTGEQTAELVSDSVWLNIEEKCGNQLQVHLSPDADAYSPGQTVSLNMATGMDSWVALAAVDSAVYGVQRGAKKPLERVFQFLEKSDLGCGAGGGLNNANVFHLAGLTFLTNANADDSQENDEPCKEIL

B1: Cab36 (reformatted as human IgG1) (antibody, V domains shown)
VH: EMQLVESGGGLVQPGGSLRLSCAASGFTFSDYYMQWVRQAPGKGPEWVGLIRNKAVGETTEYAASVKGRFTISRDDSKNSVYLQMNSLKTEDTAVYYCVSRAGPPGLSWGQGVLVTVSS
VL: DIVMTQSPLSLPVTPGEPASISCRSSQSLLASDGYNYIDWYLQKPGQSPQLLIYGGSNRASGVPDRFSGSGSGTDFTLKISRVEAEDVGVYFCLQHRALPPTFGQGTKLEIK
Work on B1 yielded an ROS IC50 [1] of 1.41 nM.

B2: Cab37 (reformatted as human IgG1) (antibody, V domains shown)
VH: B1 VH with E58F, E61Q
VL: B1 VL
With B2 the ROS IC50 [1] was 0.92 nM.

B3: Cab46 (reformatted as human IgG1) (antibody, V domains shown)
VH: B1 VH with M2V, M34I, E58G, E61T, V81A, Y97F
VL: B1 VL with S32T, N36E, I38L, G56A, F92Y, R97K
For B3, the ROS IC50 [1] was 0.66 nM.

B4: Cab18 scFv (scFv, V domains shown)
VH: B1 VH with E1V, M2V, R19K, L20V, V56I, E61Q, N79S, S80I, N86S
VL: DIVMTQNPLSLPVTPGEPASISCRSSQSLLDSNRYAYVDWYLQKPGQSPQILVYGGSNRASGVPDRFSGSGSGTDFTLKISKVEAEDVGIYYCMQHKVLPPTFGQGTKLEIK
B4 was tested, and the ROS IC50 [1] was 1.36 nM.

B5: Cab19 scFv (scFv, V domains shown)
VH: EVQLVESGGGLVQPGGSLKVSCVASGFTFSDYYIQWVRQAPGKGPEWVGLIRNKAVGGTTSYAASVKGRFTISRDDSKSVAYLQMTSLKTEDTAVYFCVSRAGPPGLSWGQGVLVTVSS
VL: DIVMIQNPLSLPVTPGEPASISCRSSQSLLHSDGYTYLDWYQQKPGQAPQLLIYGGSNRASGVPDRFSGSGSATDFTLKISKMEAEDVGVYYCMQHKALPPTFGGGTKVEIK
B5 was tested, and the ROS IC50 [1] was 1.32 nM.

B6: Cab01 scFv (scFv, V domains shown)
VH: EVQLVESGGGMVQPGGSLRVSCAASGFTFTKYYMQWVRQAPGKGPEWVGLIRNKANGGTAEYVASVKDRFTISRDDSKSIAYLQMSSLKTEDTAVYYCVMRDNGYHWGQGVLVTVSS
VL: B5 VL with M4L, I5T, N7T, S28R, Q42L, A48S, A73G, M83V, P101L
B6 was tested, and the “ROS IC50” value [2] was 1.51 nM.

B7: Cab21 scFv (scFv, V domains shown)
VH: EVQLVQSGGGLVQPGGSLKVSCAASGFIFSNYYIQWVRQAPGKGPEWVGLIRNKAIGETTEFAASVKGRFTISRDDSKSIVYLQMTRLKTEDTAVYYCAGRLGPPGLTWGQGVLVTISS
VL: B1 VL with I2A, S7T, K44R, Q50K, L51V, D75Y, R82K, V90F
For B7, the “ROS IC50” value [2] was 0.84 nM.

B8: Cab13 scFv (scFv, V domains shown)
VH: B5 VH with E1V, V23A, I34M, V56I, S61Q, V80I, A81V, T86S, F97Y, V117I
VL: B4 VL with T5I, D31A, N33D, R34G, A36N, V38M, Q50K, I51V, V53I, S81T
B8 was tested, and the “ROS IC50” value [2] was 1.08 nM.

B9: Cab15 scFv (scFv, V domains shown)
VH: VVQLVESGGGLVQPGGSLKVSCAASGFTFSDYYMQWVRQAPGKGPEWVGLIRNKAIGETTEYAASVKGRFTISRDDSKSIVYLQMSSLKPEDTAVYYCAGRLGPPGLSWGQGVLVTVSS
VL: DIVMTQNPLSLPVTPGEPASISCRSSQSLLATDGYTYLDWYLQKPGQSPQVLIYGGSKRASGVPDRFSGSGSGTDFTLKITKVEAEDVGIYYCMQHKALPPTFGQGTKLEIK
With B9 the “ROS IC50” value [2] was 0.64 nM.

B10: Cab05 scFv (scFv, V domains shown)
VH: B1 VH with E58G, E61Q
VL: B1 VL
notes: scFv
For B10, the “ROS IC50” value [2] was 1.56 nM, the “ROS IC50” value [3] was 1.56 nM and the “EC50 (read off the curve)” value [4] was ~0.03 µg/mL.

B11: Cab35-IgG1 (antibody, V domains shown)
VH: B1 VH with E61Q
VL: B1 VL
With B11 the “ROS IC50” value [3] was 1.28 nM.

B12: Cab43 (reformatted as human IgG1) (antibody, V domains shown)
VH: B1 VH with M2V, D31N, M34I, V56I, Y62F, V99A, S100G, A102L, S108T
VL: B1 VL with S28N, S32T, N36T, I38L, N58K, F92Y
For B12, the “ROS IC50” value [3] was 0.62 nM.

B13: Cab44-IgG1 (antibody, V domains shown)
VH: B1 VH with M2V, D31N, M34I, V56I, Y62F, V99A, S100G, A102L, S108T
VL: B1 VL with S32T, N36E, I38L, G56A, F92Y, R97K
notes: Full-length human IgG1
With B13 the “ROS IC50” value [3] was 0.51 nM, the binding result [5] was “binds” and the binding result [6] was “binds”. B13: binds [7]; binds [8].

B14: Cab05-IgG4 (antibody, V domains shown)
VH: B1 VH with E58G, E61Q
VL: B1 VL
notes: Full-length human IgG4 with a human kappa or lambda light chain constant domain
For B14, the “EC50 (read off the curve)” value [9] was ~0.03 µg/mL, the Kd [10] was > 100 nM and the Kd [11] was 0.105 nM. It also gave a koff [11] of 4.22e-05 s⁻¹ and a kon [11] of 402000 M⁻¹ s⁻¹.

B15: Cab38 (reformatted as human IgG1) (antibody, V domains shown)
VH: B1 VH with E58H, E61Q
VL: B1 VL
In the case of B15, the “ROS IC50” value [3] is reported as 0.53 nM.

B16: Cab45-IgG1 (antibody, V domains shown)
VH: B1 VH with M2V, M34I, E58G, E61T, V81A, Y97F
VL: B1 VL with S28N, S32T, N36T, I38L, N58K, F92Y
notes: Full-length human IgG1
B16: binds [12]; binds [13]; binds [14]. For the same binder, the “ROS IC50” value [3] was 0.64 nM.

B17: Cab03 scFv (scFv, V domains shown)
VH: EVQLVESGGGLVQPGGSLKVSCAASGFIFSDYYMQWVRQAPGKGPEWVGLIRKKVNGGTTEYAASVKGRFTISRDDSKSIVYLQMSSLKIEDTAVYYCVSRAGPPGLTWGQGVLVTVSS
VL: DIVLTQTPLSLAVSPGEPASISCRSSQSLLASDGYTYLDWYLQKPGQSPQILIYGGSNRASGVPDRFSGRGSGTDFTLKITKVEAEDVGVYYCLQHRALPPTFGQGTKLEIK
With B17 the “ROS IC50” value [2] was 1.41 nM.

B18: Cab04 scFv (scFv, V domains shown)
VH: B17 VH with E6Q, I28T, K53N, V55A, N56I, E61Q, I90T, T108S, L114V
VL: DIVMIQTPLSLPVTPGEPASISCRSSQRLLHTDGYTYLDWYLQKPGQSPQLLIYGGSNRASGVPDRFSGSGSGSDFTLKISKVEAEDVGVYYCLQHKALPLTFGGGTKLEIK
In the case of B18, the “ROS IC50” value [2] is reported as 1.87 nM.

B19: INab308 (antibody, V domains shown)
VH: QVQLQQSGPQLVRPGTSVKISCKASGYSFTTFWMDWVKQRPGQGLEWIGRIDPSDSESRLDQRFKDRATLTVDKSSSTVYMQLSSPTSEDSAVYYCARGNDGYYGFAYWGQGTLVTVSS
VL: DIVLTQSPASLAVSLGQRATISCKASQSVDYDGDSYMKWYQQKPGQPPKLLIYAASNLQSGIPARFSGSGSGTDFTLNIHPVEEEDAATYYCQQSNEDPYTFGGGTKLEIK
B19 showed a Kd [15] of 0.743 nM, a koff [15] of 0.000218 s⁻¹ and a kon [15] of 293000 M⁻¹ s⁻¹.
